One may read the Kd as the concentration at which binding is half-saturated. The low end stands for higher affinity, the high end for lower affinity.

For test [1], the target named is Human FcγRIIa (H131) (human) (UniProt P12318). Put plainly: SPR (Biacore T200), His-tagged FcγR captured on anti-penta-His chip, antibody injected.
The target in a further test is Human FcγRIIIb (human) (UniProt O75015). The description is as above.
The next test deals with Human FcγRI (human) (UniProt P12314). The description is as above.
For test [2], the target named is Human FcγRIIb (human) (UniProt P31994). Described as above.
In test [3] the target is Human FcγRIIIa (F176) (human) (UniProt P08637). The description is as above.
The target of test [4] is Human FcγRIIIa (V176) (human) (UniProt P08637). The description is as above.
The target in test [5] is Human FcγRIIa (R131) (human) (UniProt P12318). Described as above.
Test [6] has as its target Human FcγRIIa (H131) (human) (UniProt P12318). Put plainly: SPR (Biacore T200), His-tagged FcγR captured on anti-penta-His chip, kinetic or steady-state fit. In general terms: SPR reads the build-up and loss of mass on a sensor chip optically.
The target in test [7] is Human FcγRIIb (human) (UniProt P31994). The test is described as above.
Test [8] addresses Human FcγRIIa (R131) (human) (UniProt P12318). The description is as above.

Sequence of Human FcγRIIb (human) (P31994 46-217 limits assumed): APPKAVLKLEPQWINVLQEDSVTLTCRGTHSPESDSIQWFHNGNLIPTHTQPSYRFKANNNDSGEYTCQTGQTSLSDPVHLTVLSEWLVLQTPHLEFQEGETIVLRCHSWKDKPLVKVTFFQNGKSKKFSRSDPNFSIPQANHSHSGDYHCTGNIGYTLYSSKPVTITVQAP
Sequence of Human FcγRIIa (H131) (human) (P12318 36-218 limits assumed): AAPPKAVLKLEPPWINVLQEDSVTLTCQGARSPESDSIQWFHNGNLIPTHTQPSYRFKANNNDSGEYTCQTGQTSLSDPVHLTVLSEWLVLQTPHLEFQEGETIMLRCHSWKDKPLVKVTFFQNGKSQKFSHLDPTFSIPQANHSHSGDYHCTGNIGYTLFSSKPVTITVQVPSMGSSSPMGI
Sequence of Human FcγRIIa (R131) (human) (P12318 36-218 H167R limits assumed): as the sequence (P12318 36-218 limits assumed) above, with H132R counted along it
Sequence of Human FcγRIIIa (F176) (human) (P08637 17-208 limits assumed): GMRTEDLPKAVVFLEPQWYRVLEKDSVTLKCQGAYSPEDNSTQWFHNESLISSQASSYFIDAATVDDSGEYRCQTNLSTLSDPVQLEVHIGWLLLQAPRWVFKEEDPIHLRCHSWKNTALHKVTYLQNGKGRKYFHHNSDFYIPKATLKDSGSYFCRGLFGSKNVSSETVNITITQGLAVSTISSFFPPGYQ
Sequence of Human FcγRIIIa (V176) (human) (P08637 17-208 F176V limits assumed): as the sequence (P08637 17-208 limits assumed) above, with F160V counted along it
Sequence of Human FcγRI (human) (P12314 16-288 limits assumed): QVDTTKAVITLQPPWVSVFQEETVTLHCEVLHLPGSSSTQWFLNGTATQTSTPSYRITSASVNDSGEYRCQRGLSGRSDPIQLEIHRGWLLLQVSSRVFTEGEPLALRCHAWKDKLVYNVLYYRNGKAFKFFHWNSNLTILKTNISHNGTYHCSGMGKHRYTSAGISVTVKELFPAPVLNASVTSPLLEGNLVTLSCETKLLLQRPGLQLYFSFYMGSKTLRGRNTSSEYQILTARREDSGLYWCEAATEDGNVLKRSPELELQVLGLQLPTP
Sequence of Human FcγRIIIb (human) (O75015 17-200 limits assumed): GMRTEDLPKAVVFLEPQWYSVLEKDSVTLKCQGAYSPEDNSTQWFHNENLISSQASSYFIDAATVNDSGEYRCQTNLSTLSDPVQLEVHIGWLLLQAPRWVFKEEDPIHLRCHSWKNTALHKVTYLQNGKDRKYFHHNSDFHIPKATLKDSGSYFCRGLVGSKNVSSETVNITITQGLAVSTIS

B1: mAb3 (antibody, part only; not given: variable domains, not shown: another chain or arm of the molecule)
Fc: ESKYGPPCPPCPAPPVAGPSVFLFPPKPKDTLMISRTPEVTCVVVDVSQEDPEVQFNWYVDGVEVHNAKTKPREEQFNSTYRVVSVLTVLHQDWLNGKEYKCKVSNKGLPSSIEKTISKAKGQPREPQVYTLPPSQEEMTKNQVSLTCLVKGFYPSDIAVEWESNGQPENNYKTTPPVLDSDGSFFLYSRLTVDKSRWQEGNVFSCSVMHEALHNHYTQKSLSLSLGK
B1: the binding signal (RU) was 419 RU in test [1]; -8 RU with Human FcγRIIIb (human); 36 RU with Human FcγRI (human); 226 RU with Human FcγRIIb (human) [2]; 6 RU in test [3]; 34 RU in test [4]. In addition, in test [5], the binding signal (RU) was found to be 340 RU. The Kd in [6] was determined as 1610 nM; with Human FcγRIIb (human) [7], 12300 nM; in test [8] it was 1320 nM.

(Values after patent US20220372168A1.)
